# From the supplement of paper PMC10065799, “High-throughput profiling of sequence recognition by tyrosine kinases and SH2 domains using bacterial peptide display” (eLife, 2023)
# Tests used:
# c-Src SH2 = experiment: SH2 binding enrichment of the phosphorylated peptide, bacterial display (enrichment ratio); higher = better substrate or ligand; peptides without Tyr show the background
# Grb2 SH2 = Grb2 SH2 (UniProt P62993); experiment: as above
# SHP2-C SH2 = experiment: as above
# FGFR1 = FGFR1 (UniProt P11362); experiment: phosphorylation enrichment, bacterial display (enrichment ratio); higher = better substrate or ligand; peptides without Tyr show the background
# FGFR3 = FGFR3 (UniProt P22607); experiment: as above
# Fer (mouse) = experiment: as above
# Hck = Hck (UniProt P08631); experiment: as above
# AncSZ = experiment: as above
# EPHB1 = EPHB1 (UniProt P54762); experiment: as above
# EPHB2 = EPHB2 (UniProt P29323); experiment: as above
# c-Abl (mouse) = experiment: as above
# Fes = Fes (UniProt P07332); experiment: as above
# Jak2 = Jak2 (UniProt O60674); experiment: as above
# Fyn = Fyn (UniProt P06241); experiment: as above
# c-Src = experiment: as above
# MERTK = MERTK (UniProt Q12866); experiment: as above
# 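Wherever SH2 binding enrichment of the phosphorylated peptide, bacterial display is given: peptide library displayed on the E. coli surface as eCPX fusions, selected cells deep-sequenced, score is each peptide's frequency after selection divided by its frequency in the input.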
# 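Wherever phosphorylation enrichment, bacterial display is given: 11-residue human phosphosite peptides and single-mutation variants displayed on the E. coli surface, counted by deep sequencing, each peptide's frequency after selection divided by its frequency in the unselected input library; frequency after pTyr selection over input frequency; kinase dosed for 20-30% of maximal phosphorylation in three min.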
# Sequence of MERTK (Q12866 whole entry, looked up, the tested form may be a part): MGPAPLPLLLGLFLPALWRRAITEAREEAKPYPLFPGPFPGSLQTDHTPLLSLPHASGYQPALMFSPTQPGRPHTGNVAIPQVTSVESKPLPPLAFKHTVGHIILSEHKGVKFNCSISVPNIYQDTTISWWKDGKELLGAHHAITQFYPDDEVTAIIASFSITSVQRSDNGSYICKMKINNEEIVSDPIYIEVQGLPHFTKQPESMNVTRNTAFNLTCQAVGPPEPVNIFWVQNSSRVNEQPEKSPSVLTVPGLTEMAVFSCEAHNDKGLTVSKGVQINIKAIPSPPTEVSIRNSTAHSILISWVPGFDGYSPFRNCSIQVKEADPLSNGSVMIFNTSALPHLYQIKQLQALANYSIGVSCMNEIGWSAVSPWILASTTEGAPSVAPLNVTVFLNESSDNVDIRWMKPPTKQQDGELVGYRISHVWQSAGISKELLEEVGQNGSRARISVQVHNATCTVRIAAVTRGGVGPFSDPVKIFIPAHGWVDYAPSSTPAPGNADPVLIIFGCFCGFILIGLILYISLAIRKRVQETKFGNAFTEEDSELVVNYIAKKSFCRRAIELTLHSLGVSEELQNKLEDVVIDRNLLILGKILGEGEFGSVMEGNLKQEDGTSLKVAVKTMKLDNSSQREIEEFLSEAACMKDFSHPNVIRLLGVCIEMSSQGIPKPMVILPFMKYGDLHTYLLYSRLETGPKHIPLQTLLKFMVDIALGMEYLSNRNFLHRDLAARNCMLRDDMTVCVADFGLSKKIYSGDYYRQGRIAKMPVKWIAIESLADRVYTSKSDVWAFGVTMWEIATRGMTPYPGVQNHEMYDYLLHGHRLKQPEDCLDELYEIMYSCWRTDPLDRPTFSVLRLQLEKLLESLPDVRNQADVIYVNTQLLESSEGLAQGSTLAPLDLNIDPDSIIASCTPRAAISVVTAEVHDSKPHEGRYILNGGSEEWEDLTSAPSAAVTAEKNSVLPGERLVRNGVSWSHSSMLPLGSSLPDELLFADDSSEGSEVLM
# Sequence of EPHB1 (P54762 whole entry, looked up): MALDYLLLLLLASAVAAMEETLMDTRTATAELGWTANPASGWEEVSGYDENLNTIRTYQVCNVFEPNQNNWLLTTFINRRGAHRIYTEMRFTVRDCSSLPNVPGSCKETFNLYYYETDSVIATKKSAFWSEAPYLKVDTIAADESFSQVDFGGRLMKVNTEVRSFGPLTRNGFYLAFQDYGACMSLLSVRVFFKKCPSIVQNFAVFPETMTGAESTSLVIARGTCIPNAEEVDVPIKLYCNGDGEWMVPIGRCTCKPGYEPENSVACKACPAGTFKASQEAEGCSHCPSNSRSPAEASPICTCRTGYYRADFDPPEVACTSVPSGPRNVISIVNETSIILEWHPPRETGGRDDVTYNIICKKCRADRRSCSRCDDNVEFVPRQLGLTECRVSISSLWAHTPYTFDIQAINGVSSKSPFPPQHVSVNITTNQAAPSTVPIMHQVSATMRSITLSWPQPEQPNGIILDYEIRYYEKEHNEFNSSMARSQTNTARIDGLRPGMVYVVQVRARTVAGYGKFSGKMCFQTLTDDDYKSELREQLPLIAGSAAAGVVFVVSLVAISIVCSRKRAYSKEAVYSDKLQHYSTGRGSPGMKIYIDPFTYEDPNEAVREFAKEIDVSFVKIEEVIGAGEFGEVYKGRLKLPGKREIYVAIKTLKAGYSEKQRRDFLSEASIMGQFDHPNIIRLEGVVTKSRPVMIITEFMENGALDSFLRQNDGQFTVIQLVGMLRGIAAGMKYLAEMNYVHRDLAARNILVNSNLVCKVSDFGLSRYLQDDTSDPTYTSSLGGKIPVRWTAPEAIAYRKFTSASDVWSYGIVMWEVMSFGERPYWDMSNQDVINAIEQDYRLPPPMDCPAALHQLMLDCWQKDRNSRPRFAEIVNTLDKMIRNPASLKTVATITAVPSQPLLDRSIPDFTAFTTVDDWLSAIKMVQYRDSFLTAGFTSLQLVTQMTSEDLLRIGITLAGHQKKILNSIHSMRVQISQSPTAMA
# Sequence of Hck (P08631 whole entry, looked up): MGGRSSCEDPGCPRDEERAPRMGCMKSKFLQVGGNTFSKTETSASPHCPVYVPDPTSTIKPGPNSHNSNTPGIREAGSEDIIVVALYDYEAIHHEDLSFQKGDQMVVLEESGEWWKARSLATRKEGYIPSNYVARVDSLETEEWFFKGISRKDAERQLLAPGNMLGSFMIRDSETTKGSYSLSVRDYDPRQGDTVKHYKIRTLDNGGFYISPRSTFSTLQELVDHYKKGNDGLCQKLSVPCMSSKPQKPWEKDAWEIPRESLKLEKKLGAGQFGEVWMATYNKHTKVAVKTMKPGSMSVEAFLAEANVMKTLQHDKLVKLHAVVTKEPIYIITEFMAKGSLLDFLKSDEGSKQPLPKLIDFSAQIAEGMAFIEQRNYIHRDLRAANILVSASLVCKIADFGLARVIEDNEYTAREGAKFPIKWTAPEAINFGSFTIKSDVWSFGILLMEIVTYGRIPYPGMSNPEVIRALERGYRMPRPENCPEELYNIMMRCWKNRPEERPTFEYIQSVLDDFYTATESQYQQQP
# Sequence of EPHB2 (P29323 whole entry, looked up): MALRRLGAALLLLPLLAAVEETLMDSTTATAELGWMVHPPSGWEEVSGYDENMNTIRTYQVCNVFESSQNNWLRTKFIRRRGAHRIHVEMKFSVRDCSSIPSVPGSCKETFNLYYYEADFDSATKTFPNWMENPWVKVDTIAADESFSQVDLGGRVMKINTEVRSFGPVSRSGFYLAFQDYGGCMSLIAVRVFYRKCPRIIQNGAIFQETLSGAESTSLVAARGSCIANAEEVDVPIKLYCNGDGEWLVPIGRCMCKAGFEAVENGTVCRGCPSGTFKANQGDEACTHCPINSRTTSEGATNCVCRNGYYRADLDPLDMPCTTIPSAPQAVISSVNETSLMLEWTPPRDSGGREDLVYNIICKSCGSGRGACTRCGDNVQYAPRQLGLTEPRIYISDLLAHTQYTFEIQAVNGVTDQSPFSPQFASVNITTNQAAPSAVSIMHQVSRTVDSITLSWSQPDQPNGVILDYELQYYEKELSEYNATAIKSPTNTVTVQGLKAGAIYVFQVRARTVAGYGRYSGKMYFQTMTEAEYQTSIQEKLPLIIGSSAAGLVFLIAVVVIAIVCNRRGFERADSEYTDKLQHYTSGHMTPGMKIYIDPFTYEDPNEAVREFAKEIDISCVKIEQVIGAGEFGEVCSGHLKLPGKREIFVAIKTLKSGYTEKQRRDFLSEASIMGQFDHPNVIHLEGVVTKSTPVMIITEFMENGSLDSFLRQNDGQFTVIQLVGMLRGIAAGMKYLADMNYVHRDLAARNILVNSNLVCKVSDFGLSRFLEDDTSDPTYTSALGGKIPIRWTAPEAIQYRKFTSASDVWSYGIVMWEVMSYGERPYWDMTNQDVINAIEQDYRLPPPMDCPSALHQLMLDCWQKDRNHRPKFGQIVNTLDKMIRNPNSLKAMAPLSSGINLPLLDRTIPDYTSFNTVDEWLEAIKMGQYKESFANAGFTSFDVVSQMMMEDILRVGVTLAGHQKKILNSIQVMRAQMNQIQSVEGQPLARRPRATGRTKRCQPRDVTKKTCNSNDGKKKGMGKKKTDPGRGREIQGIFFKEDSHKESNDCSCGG
# Sequence of Fes (P07332 whole entry, looked up): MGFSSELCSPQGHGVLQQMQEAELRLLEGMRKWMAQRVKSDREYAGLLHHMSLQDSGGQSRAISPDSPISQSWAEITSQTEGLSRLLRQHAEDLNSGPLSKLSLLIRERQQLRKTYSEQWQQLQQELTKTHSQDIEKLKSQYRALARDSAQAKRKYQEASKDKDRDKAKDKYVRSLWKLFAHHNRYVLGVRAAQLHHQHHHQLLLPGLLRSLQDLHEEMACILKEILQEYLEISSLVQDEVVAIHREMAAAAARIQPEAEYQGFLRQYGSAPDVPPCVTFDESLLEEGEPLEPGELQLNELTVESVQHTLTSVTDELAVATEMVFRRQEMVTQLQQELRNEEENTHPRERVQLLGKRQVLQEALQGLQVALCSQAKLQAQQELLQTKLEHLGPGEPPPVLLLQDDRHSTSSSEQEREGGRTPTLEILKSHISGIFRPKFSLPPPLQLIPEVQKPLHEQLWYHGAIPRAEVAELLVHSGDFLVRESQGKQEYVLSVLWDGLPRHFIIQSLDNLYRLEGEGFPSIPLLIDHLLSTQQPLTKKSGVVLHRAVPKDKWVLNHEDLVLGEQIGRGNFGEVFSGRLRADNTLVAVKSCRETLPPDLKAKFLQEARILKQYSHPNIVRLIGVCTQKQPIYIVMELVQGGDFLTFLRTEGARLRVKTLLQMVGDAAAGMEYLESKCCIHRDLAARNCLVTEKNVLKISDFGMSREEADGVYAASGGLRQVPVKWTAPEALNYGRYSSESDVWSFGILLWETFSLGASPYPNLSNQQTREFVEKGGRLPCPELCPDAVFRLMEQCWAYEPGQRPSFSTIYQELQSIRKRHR
# Sequence of Fyn (P06241 whole entry, looked up): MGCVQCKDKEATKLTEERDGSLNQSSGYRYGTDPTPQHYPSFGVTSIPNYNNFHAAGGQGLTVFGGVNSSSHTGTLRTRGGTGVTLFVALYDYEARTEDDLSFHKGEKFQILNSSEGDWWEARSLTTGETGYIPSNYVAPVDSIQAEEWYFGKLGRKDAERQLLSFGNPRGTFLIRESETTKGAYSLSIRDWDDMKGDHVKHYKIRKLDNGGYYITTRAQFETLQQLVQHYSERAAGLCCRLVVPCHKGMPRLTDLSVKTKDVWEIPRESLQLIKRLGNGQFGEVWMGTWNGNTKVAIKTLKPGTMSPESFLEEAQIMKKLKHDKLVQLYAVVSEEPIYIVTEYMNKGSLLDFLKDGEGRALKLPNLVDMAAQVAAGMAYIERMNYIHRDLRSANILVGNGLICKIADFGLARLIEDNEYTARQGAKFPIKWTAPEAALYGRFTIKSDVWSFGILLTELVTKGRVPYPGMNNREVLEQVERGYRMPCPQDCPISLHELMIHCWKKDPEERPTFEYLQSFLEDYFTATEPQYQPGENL
Sequence,SH2 binding enrichment (c-Src SH2),SH2 binding enrichment (Grb2 SH2),SH2 binding enrichment (SHP2-C SH2),phosphorylation enrichment (FGFR1),phosphorylation enrichment (FGFR3),phosphorylation enrichment (Fer (mouse)),phosphorylation enrichment (Hck),phosphorylation enrichment (AncSZ),phosphorylation enrichment (EPHB1),phosphorylation enrichment (EPHB2),phosphorylation enrichment (c-Abl (mouse)),phosphorylation enrichment (Fes),phosphorylation enrichment (Jak2),phosphorylation enrichment (Fyn),phosphorylation enrichment (c-Src),phosphorylation enrichment (MERTK)
EIRTQDEAMAS [GFAP_Y242_Y242D],0.575,0.811,0.772,0.498,0.57,0.353,0.443,0.688,0.515,0.42,0.489,0.755,0.945,0.43,0.408,0.457
GRVLGYGTFGK [FLT4_Y853_A855T],0.725,1.01,0.7,0.338,0.414,0.393,0.417,0.553,0.372,0.538,0.533,0.633,0.617,0.543,0.623,0.369
KKLAEYGPQGR [CLCA1_Y147],0.546,0.901,0.631,0.364,0.361,0.316,0.36,0.428,0.376,0.366,0.473,0.519,0.441,0.408,0.358,0.379
AVPSLYASGRT [ACTA1_Y145_L142P],0.415,0.818,0.643,0.405,0.434,0.451,1.74,0.65,0.452,0.433,0.538,0.57,0.523,0.393,0.451,0.473
SSEFHYVGGFF [CTSC_Y347_YF],0.376,0.688,0.607,0.572,0.813,0.558,0.544,0.949,0.646,0.532,0.897,1.16,0.904,0.516,0.707,0.428
KTDKKYLMIKE [BAG3_Y451_E455K],0.499,0.897,0.836,0.423,0.526,0.373,0.368,0.64,0.426,0.439,0.616,0.877,0.636,0.368,0.392,0.408
KEEEDYREENN [BMS1_Y651_K652R],0.458,0.754,0.822,0.582,0.79,0.585,0.65,1.3,0.63,0.528,0.877,1.24,1.15,0.5,0.536,0.601
DEDEEYEYMNR [ERBB3_Y1197],0.634,1.02,0.926,0.511,0.62,0.556,0.567,1.38,0.587,0.712,0.668,1.23,1.19,0.523,0.54,0.487
GHEEFYSTHPH [LRRK2_Y1402_R1398H],0.434,0.771,1.09,0.76,0.549,1.41,1.15,0.664,0.617,0.7,0.504,0.626,0.59,0.638,1.2,1.77
VRSVDYVLFRS [FAM189B_Y361],0.648,1.13,1.12,2.09,1.4,0.544,0.528,1.06,0.825,0.534,0.516,0.831,0.583,0.455,0.403,0.44

# Continued, in another order:
SH2 binding enrichment (c-Src SH2),SH2 binding enrichment (Grb2 SH2),SH2 binding enrichment (SHP2-C SH2),Sequence,phosphorylation enrichment (FGFR1),phosphorylation enrichment (FGFR3),phosphorylation enrichment (Fer (mouse)),phosphorylation enrichment (Hck),phosphorylation enrichment (AncSZ),phosphorylation enrichment (EPHB1),phosphorylation enrichment (EPHB2),phosphorylation enrichment (c-Abl (mouse)),phosphorylation enrichment (Fes),phosphorylation enrichment (Jak2),phosphorylation enrichment (Fyn),phosphorylation enrichment (c-Src),phosphorylation enrichment (MERTK)
0.59,1.05,1.58,MGSFNYLGFAR [SPTLC2_Y178_YF],0.504,0.603,0.431,0.485,0.63,0.942,0.493,0.521,0.661,1.15,0.439,0.535,0.443
6.38,1.25,0.936,LRNRVYEVPVE [SLC26A3_Y756],0.584,0.757,4.25,1.37,1.65,1.12,1.54,1.52,1.25,2.04,1.17,1.18,3.3
0.483,1.05,0.812,TKGMIYGGGGG [PSME1_Y249],0.457,0.377,0.431,0.556,0.494,0.339,0.416,0.613,0.505,0.501,0.49,0.535,0.433
0.643,0.806,0.502,SAVVPYEPPEV [TP53_Y220_V216A],0.586,0.761,0.479,0.513,1.23,0.643,0.608,0.649,1.21,0.998,0.556,0.484,0.409
1.11,1.01,1.03,RASQEYHIVKK [PDZD2_Y557_S552R],0.881,0.784,0.571,0.607,0.772,0.754,0.471,0.841,1.08,1.06,0.289,0.643,0.356
0.633,0.89,0.595,NAGDYYDLYGG [PTPN11_Y63_T59A],19.3,18.9,2.53,6.95,5.5,16.3,15.9,1.13,1.55,4.53,7.13,6.14,3.96
